In patent US20130326725 one finds activity (% indel clones) data, which are given here for eight sequences.

Holding throughout (assay): cell_activity
Data set [1] relates to ZFN 107830L (28491) (synthetic construct). The following applies: as pair 107830L/R (pKG7479); tomato protoplasts, 48 h; also active in yeast assay.
Data set [2] concerns ZFN 107833R (28550) (synthetic construct). The following applies: as pair 107833L/R (pKG7481); tomato protoplasts, 48 h; also active in yeast assay.
Data set [3] deals with ZFN 107835R (28564) (synthetic construct). The following applies: as pair 107835L/R (pKG7482); tomato protoplasts, 48 h; also active in yeast assay.
Data set [4] relates to ZFN 107835L (28563) (synthetic construct). The following applies: as pair 107835L/R (pKG7482); tomato protoplasts, 48 h; also active in yeast assay.
In data set [5] the test system is ZFN 107833L (28549) (synthetic construct). To be noted: as pair 107833L/R (pKG7481); tomato protoplasts, 48 h; also active in yeast assay.
In data set [6] the test system is ZFN 107830R (28492) (synthetic construct). The following applies: as pair 107830L/R (pKG7479); tomato protoplasts, 48 h; also active in yeast assay.
The subject of data set [7] is ZFN 107832R (28536) (synthetic construct). The following applies: as pair 107832L/R (pKG7480); tomato protoplasts, 48 h; also active in yeast assay.
Data set [8] concerns ZFN 107832L (28535) (synthetic construct). To be noted: as pair 107832L/R (pKG7480); tomato protoplasts, 48 h; also active in yeast assay.

Take “CGGATCCCGATGCGAATCCACGGCGAGATACATAGGATGCT (double strand) [107830L target]”: the activity (% indel clones) in data set [1] came to 4.1. Sequence “TTCAGAGGTCAATCTCCCAGTAGTTGGTGGTCATGCTGGCATAAC (double strand) [107833R target]” had an activity (% indel clones) in data set [2] of 2. In data set [3], “GTCACCGAGCTTCCCTTCTTCGCATCCAAGGTAATAAGCC (double strand) [107835R target]” had an activity (% indel clones) of 0.7.

For “GGCTTATTACCTTGGATGCGAAGAAGGGAAGCTCGGTGAC (double strand) [107835L target]”, the activity (% indel clones) in data set [4] turned out to be 0.7. For “GTTATGCCAGCATGACCACCAACTACTGGGAGATTGACCTCTGAA (double strand) [107833L target]”, the activity (% indel clones) in data set [5] amounted to 2. Take “AGCATCCTATGTATCTCGCCGTGGATTCGCATCGGGATCCG (double strand) [107830R target]”: the activity (% indel clones) in data set [6] came out at 4.1. On to “CTCTTTGGAGTTACCATGCTTGATGTGGTTAGGGCCAAG (double strand) [107832R target]”, for which the activity (% indel clones) in data set [7] was determined as 5.5.

The sequence “CTTGGCCCTAACCACATCAAGCATGGTAACTCCAAAGAG (double strand) [107832L target]” returned an activity (% indel clones) in data set [8] of 5.5.
